This note sets out measurements from patent publication US20120225437A1 (UNIVERSITY OF LEICESTER, published 2012).

In experiment [1] the target is T1, Rat MBL-A (mannan-binding lectin A) (rat, UniProt P19999 18-238).
T1 construct: mature; It was immobilised on the SPR chip by amine coupling
Put plainly: SPR, MBL immobilised, CUB2 injected, 5 mM Ca2+. Here is the method: (§1) Data were fitted to a model in which there is a single Ca²⁺ site.
(§2) MBL (0.025 mg/ml) was immobilized onto the surface of a GLM sensor chip (˜10,000 response units) at pH 4.5, using amine-coupling chemistry. […] For inhibition assays, MBL was immobilized on to a CM-5 sensor chip (14,000 response units) and binding was measured on a Biacore® 2000 (GE Healthcare) in 20 mM Tris/HCl pH 7.4, containing 140 mM NaCl, 5 mM Ca²⁺, and 0.005% SP-20. […] Changes in response units caused by differences in sample composition were subtracted from all data. To account for changes in ionic strength of the buffer due to the inhibitor, binding was measured in the presence of equivalent concentrations of NaCl.
In general terms: Surface plasmon resonance follows binding to a sensor surface in real time, without labels.

Experiment [2] has as its target T1, Rat MBL-A (mannan-binding lectin A). Nature of the experiment: SPR, MBL immobilised, CUB2 at 20, 10, 5 and 2.5 µM, 1:1 model. Here is the method:
as §1, §2

B1: CUB2 domain of rat MASP-1/-3 (residues E165-A277 of the mature polypeptide, isoform 1) (other)
chain: CSGNLFTQRTGTITSPDYPNPYPKSSECSYTIDLEEGFMVTLQFEDIFDIEDHPEVPCPYDYIKIKAGSKVWGPFCGEKSPEPISTQSHSIQILFRSDNSGENRGWRLSYRA
notes: also called MASP-1 CUB2; rat MASP-1 CUB2
Turning to B1, in experiment [1], binding was characterised by a dissociation constant (Kd) of 27 µM. Further, in experiment [2], the off-rate (koff) (in general, the first-order rate constant of dissociation) amounted to 0.0035 s⁻¹ and the kon (in general, a measure of how fast the partners come together) is 131 M⁻¹ s⁻¹.
